To fix the notation:
B1: CLCN6 (parent)
chain: TGLVGLFVDFFVRLFTQLKFGVVQ
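Note: lentivirally expressed fusions sorted by FACS into six bins by GFP to DsRed ratio, PSI derived from sequencing read proportions per bin multiplied by bin number.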

The data set covers variants of B1. Briefly: protein stability index of a GFP-peptide fusion (GPS, HEK-293T) (PSI 1-6); higher = more stable. To be noted: c terminus: a fixed tail appended.
Consider TGNVGLFVDFFVRLFTQLKFGVVQ [L3N], for which the protein stability index amounted to 2.11.

In the case of TGEVGLFVDFFVRLFTQLKFGVVQ [L3E], the protein stability index was 3.71.

Turning to TGSVGLFVDFFVRLFTQLKFGVVQ [L3S], the protein stability index worked out at 2.05.

Consider TGVVGLFVDFFVRLFTQLKFGVVQ [L3V], for which the protein stability index was determined as 2.42.

Regarding TGTVGLFVDFFVRLFTQLKFGVVQ [L3T], the protein stability index turned out to be 1.65.

On to TGDVGLFVDFFVRLFTQLKFGVVQ [L3D], for which the protein stability index worked out at 2.07.

TGQVGLFVDFFVRLFTQLKFGVVQ [L3Q]: the protein stability index came out at 1.49.

TGIVGLFVDFFVRLFTQLKFGVVQ [L3I]: the protein stability index was found to be 2.36.

In the case of TGFVGLFVDFFVRLFTQLKFGVVQ [L3F], the protein stability index is 2.71.

In the case of TGMVGLFVDFFVRLFTQLKFGVVQ [L3M], the protein stability index came out at 2.73.

As for TGCVGLFVDFFVRLFTQLKFGVVQ [L3C], the protein stability index stood at 2.42.

For the variant TGRVGLFVDFFVRLFTQLKFGVVQ [L3R], the protein stability index came out at 2.52.

As to TGWVGLFVDFFVRLFTQLKFGVVQ [L3W], the protein stability index was found to be 3.37.

Take TGYVGLFVDFFVRLFTQLKFGVVQ [L3Y]: the protein stability index is 2.63.

As to TGKVGLFVDFFVRLFTQLKFGVVQ [L3K], the protein stability index was found to be 3.14.

On to TGHVGLFVDFFVRLFTQLKFGVVQ [L3H], for which the protein stability index turned out to be 2.25.

TGAVGLFVDFFVRLFTQLKFGVVQ [L3A]: the protein stability index was 2.15.

In the case of TGPVGLFVDFFVRLFTQLKFGVVQ [L3P], the protein stability index worked out at 2.45.

With TGGVGLFVDFFVRLFTQLKFGVVQ [L3G], the protein stability index worked out at 1.4.

For the variant TGLVRLFVDFFVRLFTQLKFGVVQ [G5R], the protein stability index is 2.69.

As for TGLVKLFVDFFVRLFTQLKFGVVQ [G5K], the protein stability index came out at 3.25.

On to TGLVSLFVDFFVRLFTQLKFGVVQ [G5S], for which the protein stability index was found to be 2.21.

In the case of TGLVYLFVDFFVRLFTQLKFGVVQ [G5Y], the protein stability index was determined as 2.08.

On to TGLVPLFVDFFVRLFTQLKFGVVQ [G5P], for which the protein stability index amounted to 2.71.

As to TGLVHLFVDFFVRLFTQLKFGVVQ [G5H], the protein stability index was found to be 2.16.

Take TGLVQLFVDFFVRLFTQLKFGVVQ [G5Q]: the protein stability index was 2.21.

As for TGLVMLFVDFFVRLFTQLKFGVVQ [G5M], the protein stability index came to 2.48.

Take TGLVWLFVDFFVRLFTQLKFGVVQ [G5W]: the protein stability index turned out to be 1.86.

As to TGLVTLFVDFFVRLFTQLKFGVVQ [G5T], the protein stability index was 1.34.

For TGLVDLFVDFFVRLFTQLKFGVVQ [G5D], the protein stability index is 2.47.

Regarding TGLVFLFVDFFVRLFTQLKFGVVQ [G5F], the protein stability index was determined as 1.72.

For TGLVALFVDFFVRLFTQLKFGVVQ [G5A], the protein stability index stood at 2.19.

As for TGLVELFVDFFVRLFTQLKFGVVQ [G5E], the protein stability index was determined as 1.78.

With TGLVNLFVDFFVRLFTQLKFGVVQ [G5N], the protein stability index was 2.

For the variant TGLVCLFVDFFVRLFTQLKFGVVQ [G5C], the protein stability index was 2.42.

In the case of TGLVGLKVDFFVRLFTQLKFGVVQ [F7K], the protein stability index was 1.78.

For the variant TGLVGLGVDFFVRLFTQLKFGVVQ [F7G], the protein stability index was determined as 1.73.

Take TGLVGLIVDFFVRLFTQLKFGVVQ [F7I]: the protein stability index is 2.57.

Consider TGLVGLAVDFFVRLFTQLKFGVVQ [F7A], for which the protein stability index worked out at 2.38.

As for TGLVGLHVDFFVRLFTQLKFGVVQ [F7H], the protein stability index stood at 2.44.

TGLVGLMVDFFVRLFTQLKFGVVQ [F7M]: the protein stability index was 2.56.

Consider TGLVGLCVDFFVRLFTQLKFGVVQ [F7C], for which the protein stability index stood at 2.89.

Consider TGLVGLPVDFFVRLFTQLKFGVVQ [F7P], for which the protein stability index stood at 2.28.

As for TGLVGLLVDFFVRLFTQLKFGVVQ [F7L], the protein stability index amounted to 2.77.

With TGLVGLEVDFFVRLFTQLKFGVVQ [F7E], the protein stability index was found to be 4.32.

For TGLVGLDVDFFVRLFTQLKFGVVQ [F7D], the protein stability index amounted to 3.18.

In the case of TGLVGLNVDFFVRLFTQLKFGVVQ [F7N], the protein stability index amounted to 1.84.

TGLVGDFVDFFVRLFTQLKFGVVQ [L6D]: the protein stability index came out at 2.33.

For TGLVGEFVDFFVRLFTQLKFGVVQ [L6E], the protein stability index was 2.25.

With TGLVGGFVDFFVRLFTQLKFGVVQ [L6G], the protein stability index turned out to be 3.36.

For TGLVGFFVDFFVRLFTQLKFGVVQ [L6F], the protein stability index stood at 2.4.

Turning to TGLVGYFVDFFVRLFTQLKFGVVQ [L6Y], the protein stability index was found to be 3.19.

Take TGLVGCFVDFFVRLFTQLKFGVVQ [L6C]: the protein stability index was 2.69.

As for TGLVGIFVDFFVRLFTQLKFGVVQ [L6I], the protein stability index was 2.83.

In the case of TGLVGVFVDFFVRLFTQLKFGVVQ [L6V], the protein stability index was found to be 2.15.

Turning to TGLVGSFVDFFVRLFTQLKFGVVQ [L6S], the protein stability index worked out at 2.99.

As to TGLVGQFVDFFVRLFTQLKFGVVQ [L6Q], the protein stability index worked out at 3.53.

Take TGLVGNFVDFFVRLFTQLKFGVVQ [L6N]: the protein stability index turned out to be 2.76.

For the variant TGLVGAFVDFFVRLFTQLKFGVVQ [L6A], the protein stability index came out at 2.77.

On to TGLVGMFVDFFVRLFTQLKFGVVQ [L6M], for which the protein stability index was determined as 2.93.

With TGLVGKFVDFFVRLFTQLKFGVVQ [L6K], the protein stability index is 2.44.

Take TGLVGWFVDFFVRLFTQLKFGVVQ [L6W]: the protein stability index came to 3.31.

Consider TGLVGTFVDFFVRLFTQLKFGVVQ [L6T], for which the protein stability index turned out to be 2.71.

In the case of TGLVGRFVDFFVRLFTQLKFGVVQ [L6R], the protein stability index was determined as 3.73.

Turning to TGLVGHFVDFFVRLFTQLKFGVVQ [L6H], the protein stability index worked out at 3.06.

As for TGLVGPFVDFFVRLFTQLKFGVVQ [L6P], the protein stability index worked out at 2.65.

Consider TGLMGLFVDFFVRLFTQLKFGVVQ [V4M], for which the protein stability index came to 2.49.

Take TGLGGLFVDFFVRLFTQLKFGVVQ [V4G]: the protein stability index was 1.66.

For TGLTGLFVDFFVRLFTQLKFGVVQ [V4T], the protein stability index came to 2.38.

For the variant TGLHGLFVDFFVRLFTQLKFGVVQ [V4H], the protein stability index worked out at 2.28.

With TGLQGLFVDFFVRLFTQLKFGVVQ [V4Q], the protein stability index was determined as 2.79.

As to TGLAGLFVDFFVRLFTQLKFGVVQ [V4A], the protein stability index was determined as 1.97.

Turning to TGLNGLFVDFFVRLFTQLKFGVVQ [V4N], the protein stability index came to 2.39.

On to TGLLGLFVDFFVRLFTQLKFGVVQ [V4L], for which the protein stability index was 2.33.

On to TGLKGLFVDFFVRLFTQLKFGVVQ [V4K], for which the protein stability index turned out to be 2.16.

As to TGLIGLFVDFFVRLFTQLKFGVVQ [V4I], the protein stability index turned out to be 2.56.

With TGLWGLFVDFFVRLFTQLKFGVVQ [V4W], the protein stability index was determined as 3.63.

As for TGLFGLFVDFFVRLFTQLKFGVVQ [V4F], the protein stability index is 2.93.

Regarding TGLSGLFVDFFVRLFTQLKFGVVQ [V4S], the protein stability index came out at 2.63.

For TGLRGLFVDFFVRLFTQLKFGVVQ [V4R], the protein stability index turned out to be 2.19.

On to TGLCGLFVDFFVRLFTQLKFGVVQ [V4C], for which the protein stability index is 2.36.

As for TGLPGLFVDFFVRLFTQLKFGVVQ [V4P], the protein stability index came out at 2.05.

Turning to TGLYGLFVDFFVRLFTQLKFGVVQ [V4Y], the protein stability index amounted to 2.07.

Regarding TGLDGLFVDFFVRLFTQLKFGVVQ [V4D], the protein stability index amounted to 4.33.

For the variant TLLVGLFVDFFVRLFTQLKFGVVQ [G2L], the protein stability index was 3.27.

As to TWLVGLFVDFFVRLFTQLKFGVVQ [G2W], the protein stability index was 2.22.

Regarding TSLVGLFVDFFVRLFTQLKFGVVQ [G2S], the protein stability index was found to be 1.96.

For the variant TYLVGLFVDFFVRLFTQLKFGVVQ [G2Y], the protein stability index is 2.9.

Consider TPLVGLFVDFFVRLFTQLKFGVVQ [G2P], for which the protein stability index worked out at 1.67.

On to TTLVGLFVDFFVRLFTQLKFGVVQ [G2T], for which the protein stability index stood at 1.81.

TQLVGLFVDFFVRLFTQLKFGVVQ [G2Q]: the protein stability index is 1.73.

On to TRLVGLFVDFFVRLFTQLKFGVVQ [G2R], for which the protein stability index is 2.78.

In the case of TNLVGLFVDFFVRLFTQLKFGVVQ [G2N], the protein stability index came out at 1.84.

In the case of TMLVGLFVDFFVRLFTQLKFGVVQ [G2M], the protein stability index stood at 2.66.

The values above are taken from the supplement of paper PMC10567573.
